Results as given in PMC10330345 (2023).

B1: BTN2A1 271-527 (protein)
chain: KLQKEKKILSGEKEFERETREIALKELEKERVQKEEELQVKEKLQEEGRARRTFLHAVDVVLDPDTAHPDLFLSEDRRSVRRCPFRHLGESVPDNPERFDSQPCVLGRESFASGKHYWEVEVENVIEWTVGVCRDSVERKGEVLLIPQNGFWTLEMHKGQYRAVSSPDRILPLKESLCRVGVFLDYEAGDVSFYNMRDRSHIYTCPRSAFSVPVRPFFRLGCEDSPIFICPALTGANGVTVPEEGLTLHRVGTHQSL
B2: BTN2A1 271-527 (protein)
chain: KLQKEKKILSGEKEFERETREIALKELEKERVQKEEELQVKEKLQEELRARRTFLHAVDVVLDPDTAHPDLFLSEDRRSVRRCPFRHLGESVPDNPERFDSQPCVLGRESFASGKHYWEVEVENVIEWTVGVCRDSVERKGEVLLIPQNGFWTLEMHKGQYRAVSSPDRILPLKESLCRVGVFLDYEAGDVSFYNMRDRSHIYTCPRSAFSVPVRPFFRLGCEDSPIFICPALTGANGVTVPEEGLTLHRVGTHQSL
B3: BTN2A1 271-527 (protein)
chain: KLQKEKKILSGEKEFERETREIALKELEKERVQKEEELQVKEKLQEEGRWRRTFLHAVDVVLDPDTAHPDLFLSEDRRSVRRCPFRHLGESVPDNPERFDSQPCVLGRESFASGKHYWEVEVENVIEWTVGVCRDSVERKGEVLLIPQNGFWTLEMHKGQYRAVSSPDRILPLKESLCRVGVFLDYEAGDVSFYNMRDRSHIYTCPRSAFSVPVRPFFRLGCEDSPIFICPALTGANGVTVPEEGLTLHRVGTHQSL

The binders below were run against BTN3A1 272-513 (Homo sapiens, UniProt O00481) (assay: ITC).
Sequence of BTN3A1 272-513 (O00481 272-513): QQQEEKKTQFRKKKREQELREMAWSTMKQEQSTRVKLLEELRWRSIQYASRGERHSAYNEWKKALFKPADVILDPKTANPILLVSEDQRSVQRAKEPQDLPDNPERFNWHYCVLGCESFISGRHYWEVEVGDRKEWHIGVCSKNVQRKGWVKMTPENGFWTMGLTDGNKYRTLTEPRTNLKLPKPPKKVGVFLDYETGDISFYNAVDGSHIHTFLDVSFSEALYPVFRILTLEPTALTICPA

B1 and B2 are within 1.5-fold of each other in Kd: 710 nM for the first, 670 nM for the second.

Work on B3 yielded a Kd of 1160 nM.
